Legend:
[1] = molecular target: Cysteine-SpyCatcher
[2] = molecular target: Cysteine-SpyCatcher; assay: pull-down; Cys-SpyCatcher on magnetic beads (50 µl, 20 mg/ml) mixed with 500 µl crude leaf filtrate of plants expressing Mito-SpyTag; 30 min at 4 °C, mitochondria isolation buffer (30 mM MOPS pH 7.5, 0.3 M mannitol, 1 mM EDTA), three washes; mitochondria stained with MitoTracker Orange, read by CLSM and counted; wild type filtrate as control
[3] = molecular target: Cysteine-SpyCatcher; assay: pull-down; Cys-SpyCatcher on magnetic beads (50 µl, 20 mg/ml) mixed with 200 µl crude leaf filtrate of plants expressing Plastid-SpyTag; 30 min at 4 °C, chloroplast isolation buffer (10 mM HEPES-KOH pH 7.0, 0.33 M sorbitol), three washes; chloroplasts on beads read by CLSM and counted; wild type filtrate as control

Row | Substance | enrichment of mitochondrial fumarase activity in the bead fraction compared to the crude input fraction [1] [fold] | percent of beads that carry a bound mitochondrion [2] [%] | percent of beads that carry a chloroplast [3] [%]
1 | Mito-SpyTag (NtHxk1-SpyTag) (from UniProt Q9SEK2 1-44) | 5.4 | 31.1 | 
2 | Plastid-SpyTag (OEP7-SpyTag) |  |  | 22.8
